# Source: the DeepSol protein solubility set
# Assay: soluble on expression in E. coli; label from the status in PepcDB or PDB records
row,Sequence,soluble on expression in E. coli
1,MAHHHHHHMSGEKKEALKNDLPPIPGCDTDGQTYKSAEEMWAAELRGNLYDAETGWYGRSLQYWSKVPATVSGVLGGMEHIHDVDLKESRAFITSIPDRGTSRALDCGAGIGRVTKYLLSTLYTVTDLLEPVANMLEKAKEELKGYPVGEFFLSSMETVNLKPNTYDLIVIQWTAIYLTDDDFVKFLAHCKTALTLRGYIFFKENCSCDERFVVDKEDSSLTRSDAHYKRIFAAAGVEVVKETMQKEWPDDLFKVKMYALR,soluble
2,MITLPTGTKIWIIAGITDMRCGFNGLASKVQNTLKDDPFSGHIFVFRGRSGKMVKILWADRDGLCLFAKRLAGDPGRESAPDASSVIHATGGDRVATSQTDRTAWHPDITRDKTRE,not soluble
3,MAHHHHHHMPTASASREPLVPSINFSMVCPGVYRSGYPTKKNYSFLCALRLRSILYLCPEDYAESNLKFCEENGIHVLRFPTEGNKEPFCDVSEPLMHRILSAICDTRNLPLLIHCNKGKHRTGTVVACLRHLQGWSLVSIFEEYKRFASDKARVGDQQYVELYHPIVKLTPPFVALWVTVTPRVTLVTSDRELMEAEAMQLGYSLLAPDKHLMKNGSSTNKSTAPTAAAASGAASVTAAPAAAAAATAGSGPTVAVSTSGPSAAGAMQQQQPSQPVTSAASASASNSGHSLAPSLMATAATPAAADR,not soluble
4,MGSDKIHHHHHHMTRTEHEISFGPYTAVATTRGGALRELRHEGRDLVVGFAADGEIPDYRGVICAPWPNRLAGGRYSFEGKDYQAVVNEEQRGTALHGLVFGAVWELLEHTASSVRLGTRIEPGDGYPGRLDVSVDYELRADGLHSTVRARNVGVEAAPYGACPHPYLIAGPAPLDEWSVQIPATEFMEVSADRLLPEGMAGVEGHAFDFRTEKVLGSVQIDHAFTGLIPNADGLAAVRVHDPSGTGVELEWDATWPWLQIHTADKPSGPTRLGLAVEPMTCPPDAFNSGTDVLRLAPGESHEASWTIRALSR,not soluble
5,MGSDKIHHHHHHVNQVSARRPVTVTGEDWFEIAKTLEISSESVVQDFLRDNPGFAADLVIPKRVTIETVFGCNARCGMCVIDQPTERPKGTMPLEQFKAIVDKLVPYRDRIEMMDFFALGEPLIDTHLFERIRYVKAKGFRRLAFATNAHLLTAAKRRDLLESGIDTVIFSIDGITKATHESIRERVNFDKVMENVQAVIRERDQGDFKTRFVVRFVRQAKNRHEWEEYKAFWSSRISPDRNDVVTSYDMHTWGGQVANKDDVIGGEQQRDEMVERLPCHHAFDKLTILADGSIPLCSEDILEPAYGFGKIGDQDPIQVFNSERLRAMRRLHLAGRKALLKGCGECTLLYSEPRRGSD,not soluble
6,MSYEKEFLKDFEDWVKTQIQVNQLAMATSQEVAQEDGDERAKDAFIRYESKLDAYEFLLGKFDNYKNGKAFHDIPDELFGARHY,soluble
7,MGSDKIHHHHHHMDSAYVFDSEQATKLLMKNYELVKTSGVSFIDKRIRFLIARLFAGNNEVVDPEEFSEINKEIKRQLGMFTALNGNVRASLVGLLMANDNASRESVQQVIANYNTLIQAGFQRTEYTYFAAYLLLESENPKKTARKAKTIHQLFKKDHPFLTKSEDVTTAVFLANLPEENTTKLAEITEYYFQEFAAKGFRKNDSLQFLATTGTLLYGEKDSKFIRRVDNIVEELRQKGIKVKPLHYSSIGILAFVMDARKIDSGLVNLIDELQQQPGLRFGREFVTALAISLYTEKQSGQMSKEQLEGLMVNVHILIAMEQAAAVSAAAAASAAAASS,not soluble
8,MDVRPYEGGRFEKIGSEEAHTIETFERRIHGTPHSEPQRQVSSKQYTERRTYGRDENGEIVVKIEKNPSEPVRPASPVRPVTPVGGENELSRHLLQPIQPLHIPRIDIQPANSSRHASPRHKLQYDEVSPRSGSINMLSPRSGHSASSRSGAGSRQSNVSVNSANVPLKKVTKKSRFVSIHDGRPVSPYTETVSFEVAIPFQPDRYSSASARSFSSSPHVSRRPSECAYLMENPLYQD,not soluble
9,MGSDKIHHHHHHMPMNRIDRLLGMITLLQAKKFVSAEKIADKFKISKRTVFRDIKAICEQGIPVGSEPNKGYFIVDGYFLPPVLFNNDEANALLLTESLVKGFADKSISKHYSNALDKIKAGLKQVDKDKLEHMQDAIKFQLPERMNNDFEYLSILQVAVSDKKIIYIDYKNNKEEVSKREIEPIGLIFYAFSWHLIGWCHHRKAYRDFKVSRIIQMKNTGVPFKKNKHMPLSEYMKELPVNY,not soluble
10,MEFRQLKYFIAVAEAGNMAAAAKRLHVSQPPITRQMQALEADLGVVLLERSHRGIELTAAGHAFLEDARRILELAGRSGDRSRAAARGDVGELSVAYFGTPIYRSLPLLLRAFLTSTPTATVSLTHMTKDEQVEGLLAGTIHVGFSRFFPRHPGIEIVNIAQEDLYLAVHRSQSGKFGKTCKLADLRAVELTLFPRGGRPSFADEVIGLFKHAGIEPRIARVVEDATAALALTMAGAASSIVPASVAAIRWPDIAFARIVGTRVKVPISCIFRKEKQPPILARFVEHVRRSAKD,soluble
11,VNIKTNPFKAVSFVESAIKKALDNAGYLIAEIKYDGVRGNICVDNTANSYWLSRVSKTIPALEHLNGFDVRWKRLLNDDRCFYKDGFMLDGELMVKGVDFNTGSGLLRTKWTDTKNQEFHEELFVEPIRKKDKVPFKLHTGHLHIKLYAILPLHIVESGEDCDVMTLLMQEHVKNMLPLLQEYFPEIEWQAAESYEVYDMVELQQLYEQKRAEGHEGLIVKDPMCIYKRGKKSGWWKMKPENEADGIIQGLVWGTKGLANEGKVIGFEVLLESGRLVNATNISRALMDEFTETVKEATLSQWGFFSPYGIGDNDACTINPYDGWACQISYMEETPDGSLRHPSFVMFR,soluble
12,MKDQGRSPRKRTGGRRRPNHKKKKHELGKDTVETQVGEQRLKTVDSRGNTQKVRAVKTDVASIADGAETIEATIENVVENPSNPNYARRNIITKGAILETSEGQARVTSRPGQHGQVNAVLVEAAALEHHHHHH,soluble
13,MKKIPLGTTDITLSRMGLGTWAIGGGPAWNGDLDRQICIDTILEAHRCGINLIDTAPGYNFGNSEVIVGQALKKLPREQVVVETKCGIVWERKGSLFNKVGDRQLYKNLSPESIREEVAASLQRLGIDYIDIYMTHWQSVPPFFTPIAETVAVLNELKSEGKIRAIGAANVDADHIREYLQYGELDIIQAKYSILDRAMENELLPLCRDNGIVVQVYSPLEQGLLTGTITRDYVPGGARANKVWFQRENMLKVIDMLEQWQPLCARYQCTIPTLALAWILKQSDLISILSGATAPEQVRENVAALNINLSDADATLMREMAEALER,soluble
14,MAKRFTLKDAEELYLVPHWSGGFFRVGEKGDLEVTPLGPKGPAASLLEIVEALRDEGRPLPLVLRFPQILEARVRDLNEAFLEAMAKYGYQGTYRGVYPVKVNQRRLVLETVARAGRPYHLGLEAGSKPELALILAQDLSEEALITTNGFKDDDFVRLALMGRKLGRNVVITLEKFAELFRVLRLSKELGVKPLLGIRYKLKAKGAGQWEASGGENAKFGLTTPEIVRAVEVLQEEGLLDALVMLHAHIGSQVTDIRRIKAAVREAAQTYVQLRKLGAPLRYLNLGGGLAVDYDGSKTNFYASANYTLSEYAENLVYVTKEVVEAQGEPHPILVTESGRAITAYHEVLVLQVIDVIAPPGEARPSPPPPEAHPLVKELWESLQSLSPKNFQEVYHDAFADKETLQTLYDLGLVSLRDRALAEEIFYHIARRVQTIAQNLPYVPDELEDLEKLLADKLVCNFSVFQSLPDAWAIHQLFPVVPLSRLLEPPTRRATLVDISCDSDGKMDRFIDLHDVRQTLPVHPVRPGEPYYLGVFLVGAYQDVLGSNHNLFGQVGEAHVRVEEEGFAIERFVGGETAERVIEKMGFTARELMLGVERLVRQSRLSPVEKGAFLERYARELQGYTYLED,soluble
15,MSLSELARRLNQCKKPVGDQGKVVVDDMNERHYELTGWGLDKIKIDKAYKMLDIGCGGGRTVNRLSKAAEEGEVYGIDYSSDCVRWASEYNKELIKEGRVHISEASVEKLPFEDNKFDVVTAVETIYFWPNVEENIKEVNRVLKKGGKFIIINEIYDDDKFRERNNEFAKNSNMKIYSPEKLKSLLKNAGYLNVEMEIKEENNWICYVSEKEGHHHHHH,soluble
16,VLDVDTARRRIVDLTDAVRAFCTAHDDGLCNVFVPHATAGVAIIETGAGSDEDLVDTLVRLLPRDDRYRHAHGSYGHGADHLLPAFVAPSVTVPVSGGQPLLGTWQSIVLVDLNQDNPRRSVRLSFVEG,not soluble
17,QGEIRVGPSHQAKLPDLQPFPSPDGDTVTQHEELVWMPGVNDCDLLMYLRAARSMAAFAGMCDGGSTEDGCVAASRDDTTLNALNTLHESGYDAGKALQRLVKKPVPKLIEKCWTEDEVKRFVKGLRQYGKNFFRIRKELLPNKETGELITFYYYWKKT,not soluble
18,MSLTITENPYRLSLDIEGIGFQTADAIATSLGVAKNSLMRAEAGISHVLGELSQNGHCAVPEETLIDEASRLLQIDHPLVVEAVKNEKLTRRIVGETIDGVPCIFLESLHRAETGVASGLHRLMRGPLPWNALDPHDALPWIEETTALELSPSQRSAVTLVLASKVSIITGGPGVGKTTILKAILSVLQREKVSVALCAPTGRAAKRLTESTGIEAKTIHRLLEFDPQAFDFKRGRGNPLDASFVVVDETSMVDVVLMQKLVAAIPDHAAVVFVGDVDQLPSVGPGAVLADMISSEAIPTVRLTEIFRQAAESMIVVNAHRINQGDMPLTEGHHHHHH,soluble
19,MASESSIDEKKKKAQVTQSNINKNTPQQLTDKDLFGNETTLAVSEEDIQAALDGDEFRVPLNSPVILVQSGNRAPETIMQEEMRKYYTVSTFSGIPDRQKPLTCNKNKDKNENEDVASAENMNWMQALRFVAAKGHQKAIIVYQDMLQTGKYDSALKSTVWSDYKNDKLTDAISLRYLVRFTLVDVATGEWATWSPVNYEYKVLPPLPDKNEASTTDMTEQQIMQLKQKTYKAMVKDLVNRYQLEHHHHHH,not soluble
20,MPRIRCERCARPASHCLCALIPSLPSRTRVLVLQHPSEVGHALNTAGLAVLGLCNAELRVGERFAEETWRVPGYRACLLFPGEQARALAEMAAEAAGEPLLLVVPDGTWRKARKLLHLNPALAALPRVSLAEGMASRYRLRKAPGEGALSTIEAIAAALDELEAPRTHEALLKPFDALIEGQIAAMGEDTYRRNHLSQERRRRLEHHHHHH,soluble
21,MSLSHTANPCCSHPCQNRGVCMSVGFDQYKCDCTRTGFYGENCSTPEFLTRIKLFLKPTPNTVHYILTHFKGFWNVVNNIPFLRNAIMSYVLTSRSHLIDSPPTYNADYGYKSWEAFSNLSYYTRALPPVPDDCPTPLGVKGKKQLPDSNEIVEKLLLRRKFIPDPQGSNMMFAFFAQHFTHQFFKTDHKRGPAFTNGLGHGVDLNHIYGETLARQRKLRLFKDGKMKYQIIDGEMYPPTVKDTQAEMIYPPQVPEHLRFAVGQEVFGLVPGLMMYATIWLREHNRVCDVLKQEHPEWGDEQLFQTSRLILIGETIKIVIEDYVQHLSGYHFKLKFDPELLFNKQFQYQNRIAAEFNTLYHWHPLLPDTFQIHDQKYNYQQFIYNNSILLEHGITQFVESFTRQIAGRVAGGRNVPPAVQKVSQASIDQSRQMKYQSFNEYRKRFMLKPYESFEELTGEKEMSAELEALYGDIDAVELYPALLVEKPRPDAIFGETMVEVGAPFSLKGLMGNVICSPAYWKPSTFGGEVGFQIINTASIQSLICNNVKGCPFTSFSVPDPELIKTVTINASSSRSGLDDINPTVLLKERSTELEGHHHHHH,not soluble
22,SLRKVGLTALEWLKQHPEIKQHKESSLYEQLFASQQWQQAQTIGMIRSLPLELSTQPIFERAMQESKQVAVPRTFKGGKMHFYQVFPETVYDTSAFGVEEPPLTAAEITATAIDLLIVPGIVFNRAGYRIGFGGGFYDRYLEHFSGHSCSLVFSEQLHEQWQPEAFDQPIEQLFIQ,soluble
